Laboratory results reported in patent US20250018005A1.

What was measured:
[1] = biological target: gp120, a protein in the HIV envelope (HIV); test: competition ELISA, Q-GRFT binding to gp120, PBS control (no α-mannan)
[2] = biological target: gp120, a protein in the HIV envelope (HIV); test: competition ELISA, Q-GRFT binding to gp120 in the presence of α-mannan at 0.005 (printed g/mL; the legend of FIG. 3 prints µg/mL)

## Q-Griffithsin (Q-GRFT), recombinant oxidation-resistant variant of griffithsin (M78Q) (from UniProt P84801 1-121)
[1]
  EC50: 72.5 µg/mL
[2]
  EC50: 79.3 µg/mL
